Data from patent US6518054B1, “Metallo-endopeptidases” (Rijksuniverstteit Te Groningen, priority 1997, dated 2003).

What was measured:
Type in all cases: biochemical
casein [1] = assay: Specific activity with casein as substrate at 37° C.
Procedure: (§1) Specific activities for TLP-ste and the 8-fold mutant were determined using casein (0.8%) as a substrate in 50 mM Tris-HCl (pH 7.5), 5 mM CaCl2 at 37° C. […] (pH 7.0), 5 mM CaCl2, 5% or 1% DMSO, 0.5% isopropanol, 0.01% Triton X-100, 50 mM NaCl, with […] of substrate, by measuring the decrease in absorption at 345 nm (Î345=−317 M^−1·cm^−1). Stock solutions of the furylacryloylated dipeptides, (Sigma, St. Louis, […].) were prepared by dissolving 3-(-2-furylacryloyl)-L-glycyl-L-leucine amide (FaGLa) and 3-(-2-furylacryloyl)-L-alanyl-L-phenylalanine amide (FaAFa) in DMSO. The kcat/Km ratios of the enzymes were determined by varying the enzyme concentrations (over a 50 fold range) under pseudo-first order conditions by measuring the initial activity, essentially according to the method described by Feder^30. The Ki for phosphoramidon (N-[a-L-rhamnopyrano-syl-oxyhydroxyphophinyl]-L-leucyl-L-tryptophan) was determined by a 30 minute preincubation of a 100 pM protease solution with varying concentrations of the inhibitor (10^−8 to 10^−3 M), in 50 mM MOPS (pH 7.0), 5 mM CaCl2, 50 mM NaCl, prior to the addition of the furylacryloated substrate. For determination of the Ki FaAFa was used as the substrate. Since the Km of the substrate for the enzyme is higher than the concentration used, IC50 values were taken to be equal to Ki values. The optimum temperature for activity was determined by incubating proteases with casein (0.8%) in 50 mM Tris-HCl (pH 7.5), 5 mM CaCl2, at different temperatures for 30 minutes, after which the amount of released peptides, indicative for activity, was measured^11.

casein [2] = assay: Optimum temperature for activity with casein
Procedure: as §1

[3] = Effect of denaturing agents on protease activity (FaGLa, 50° C.)
Procedure: Protease activities were determined in 50 mM MOPS (pH 7.0), 5 mM CaCl2, 50 mM NaCl, 0.01% Triton X-100, 0.5% isopropanol, using 100 μM FaGLa (3-(-2-furylacryloyl)-L-glycyl-L-leucine amide) as a substrate at 50° C. Enzymes and denaturing agents were preincubated in the reaction mixture at 50° C. for 15 minutes prior to the addition of the substrate. The reaction was followed by measuring the change in absorbance at 345 nm. […] Activities are expressed as percentage of the activity in the absence of denaturant.

β-Casein = assay: Proteolytic (cleavage) specificity on β-casein, reversed phase peptide pattern; details: moderate and high temperatures (60° C. and 100° C.)
Procedure: FIG. 3. Typical proteolytic specificity of TLP-ste and the 8-fold mutant β-Casein (1 mg/ml) was incubated with TLP-ste or the 8-fold mutant at a molar ratio of 1000:1 for 1 hour at 60° C. and 100° C., respectively. Under these conditions β-casein behaves as a non-compact and largely flexible structure. The peptides resulting from hydrolysis were derivatized with dansyl-chloride. The proteolytic products were separated by loading a sample corresponding to 50 μg β-casein on a reversed phase column (RP-304, Bio-Rad Laboratories, Watford, Herts., UK). The mobile phase used was 50 mM NaAc, pH 5.2. Peptides were eluted with a linear gradient from 0-60% acetonitrile at a flow rate of 1 ml/min. Absorption of the eluting peptides was monitored at 254 nm.

casein [4] = assay: Hydrolysis of 10% (w/v) casein compared with commercial enzyme preparations; details: casein 10% w/v
Excerpt: (§2) In industrial applications enzymes are used for the hydrolysis of protein preparations derived from different sources. Here we show the results of a comparative study in which the rate and quality of hydrolysis of casein and yeast protein preparations by the 8-fold mutated TLP-ste variant was compared with that obtained by the hydrolysis using 3 different enzyme preparations that are used for these purposes in industry. The hydrolysis conditions were chosen such that they were optimal for each of the enzyme preparation under study. The hydrolysis products were separated in an acid-soluble and a not acid-soluble fraction. The amount of acid-soluble protein material formed upon hydrolysis was determined by means of measuring the absorbance at 275 nm, whereas the composition of the acid-insoluble hydrolysis products was studied using SDS-PAGE.
(§3) Substrate (10% w/v of casein or yeast protein preparation) was incubated in 50 mM Tris-MES, 5 mM CaCl2, pH 6.5 at 50° C. (Enzyme I, Favourzyme™ 1000L); 50 mM Tris-MES, 5 mM CaCl2, pH 6.0 at 60° C. (Enzyme II, BioProtease N100L); 50 mM Tris-MES, 5 mM CaCl2, pH 8.0 at 60° C. […] The amount of acid-soluble protein released by hydrolysis was determined by measuring the absorbance of the samples at 275 nm. The acid precipitated proteins were redisolved in 6 M urea and subsequently analysed by SDS-PAGE (15% running gel).

[5] = tested on: yeast protein preparation; assay: Hydrolysis of 10% (w/v) yeast proteins compared with commercial enzyme preparations; details: yeast proteins 10% w/v
Excerpt: as §2, §3

[6] = enzyme 0.05% v/v, pH 7.0, 90° C.

B1: 8-fold mutant: TLP-ste with A4T, T56A, G58A, T63F, S65P, A69P and a disulfide bridge G8C-N60C (protein)
chain: VAGTSTVCVGRGVLGDQKYINTTYSSYYGYYYLQDNTRGSGIFTYDGRNRTVLPGSLWADADCQFFAPYDAPAVDAHYYAGVVYDYYKNVHGRLSYDGSNAAIRSTVHYGRGYNNAFWNGSQMVYGDGDGQTFLPFSGGIDVVGHELTHAVTDYTAGLVYQNESGAINEAMSDIFGTLVEFYANRNPDWEIGEDIYTPGVAGDALRSMSDPAKYGDPDHYSKRYTGTQDNGGVHTNSGIINKAAYLLSQGGVHYGVSVNGIGRDKMGKIFYRALVYYLTPTSNFSQLRAACVQAAADLYGSTSQEVNSVKQAFNAVGVY
specific activities at 37° C., wild-type versus mutant (casein [1]): identical
Specific activity casein (casein [1]; casein 0.8%, pH 7.5, 5 mM CaCl2): 3.9 ± 0.7 (U/mg) × 10^−3
rise of temperature for optimum activity versus wild-type (casein [2]): 21 °C
Topt (optimum temperature for activity) (casein [2]; casein 0.8%, 30 minutes): 95 °C
activity and stability in the presence of high concentrations of denaturing agents [3]: active and stable
relative activity ([3]; GndHCl 0 M): 100%
relative activity ([3]; GndHCl 1.0 M): 95%
relative activity ([3]; GndHCl 2.0 M): 83%
relative activity ([3]; GndHCl 3.0 M): 68%
relative activity ([3]; GndHCl 4.0 M): 50%
relative activity ([3]; GndHCl 5.0 M): 40%
relative activity ([3]; GndHCl 5.5 M): 15%
relative activity ([3]; GndHCl 6.0 M): 0%
relative activity ([3]; SDS 0 % w/v): 100%
relative activity ([3]; SDS 0.25 % w/v): 94%
relative activity ([3]; SDS 0.5 % w/v): 81%
relative activity ([3]; SDS 0.75 % w/v): 57%
relative activity ([3]; SDS 1.0 % w/v): 40%
relative activity ([3]; SDS 1.25 % w/v): 29%
relative activity ([3]; SDS 1.5 % w/v): 22%
relative activity ([3]; SDS 2.0 % w/v): 0%
relative activity ([3]; Urea 0 M): 100%
relative activity ([3]; Urea 0.5 M): 97%
relative activity ([3]; Urea 1.0 M): 91%
relative activity ([3]; Urea 2.0 M): 93%
relative activity ([3]; Urea 3.0 M): 86%
relative activity ([3]; Urea 4.0 M): 72%
relative activity ([3]; Urea 5.0 M): 63%
relative activity ([3]; Urea 7.5 M): 35%
cleavage specificity, effect of the stabilizing mutations (β-Casein): largely unaffected
range of hydrolysis products (SDS-PAGE) versus the other enzymes (casein [4]): much broader range of hydrolysis products
rate of hydrolysis and acid-soluble protein products versus the other enzyme preparations (casein [4]; [6]): more rapidly and that more acid-soluble protein products are produced
range of hydrolysis products (SDS-PAGE) versus the other enzymes [5]: much broader range of hydrolysis products
rate of hydrolysis and acid-soluble protein products versus the other enzyme preparations [5, 6]: more rapidly and that more acid-soluble protein products are produced
